Consider one substance from article PMC2001758.

The test concerns the target high affinity saturable binding sites for LDL on the human non-small cell lung tumour line L-DAN (LDL-receptors) (human (endogenous in L-DAN)) (UniProt P01130). Briefly: radioligand binding; 125I-labelled LDL on cells of the human non-small cell lung tumour line L-DAN; saturable binding.

Chain of high affinity saturable binding sites for LDL on the human non-small cell lung tumour line L-DAN (LDL-receptors) (human (endogenous in L-DAN)) (P01130 22-860): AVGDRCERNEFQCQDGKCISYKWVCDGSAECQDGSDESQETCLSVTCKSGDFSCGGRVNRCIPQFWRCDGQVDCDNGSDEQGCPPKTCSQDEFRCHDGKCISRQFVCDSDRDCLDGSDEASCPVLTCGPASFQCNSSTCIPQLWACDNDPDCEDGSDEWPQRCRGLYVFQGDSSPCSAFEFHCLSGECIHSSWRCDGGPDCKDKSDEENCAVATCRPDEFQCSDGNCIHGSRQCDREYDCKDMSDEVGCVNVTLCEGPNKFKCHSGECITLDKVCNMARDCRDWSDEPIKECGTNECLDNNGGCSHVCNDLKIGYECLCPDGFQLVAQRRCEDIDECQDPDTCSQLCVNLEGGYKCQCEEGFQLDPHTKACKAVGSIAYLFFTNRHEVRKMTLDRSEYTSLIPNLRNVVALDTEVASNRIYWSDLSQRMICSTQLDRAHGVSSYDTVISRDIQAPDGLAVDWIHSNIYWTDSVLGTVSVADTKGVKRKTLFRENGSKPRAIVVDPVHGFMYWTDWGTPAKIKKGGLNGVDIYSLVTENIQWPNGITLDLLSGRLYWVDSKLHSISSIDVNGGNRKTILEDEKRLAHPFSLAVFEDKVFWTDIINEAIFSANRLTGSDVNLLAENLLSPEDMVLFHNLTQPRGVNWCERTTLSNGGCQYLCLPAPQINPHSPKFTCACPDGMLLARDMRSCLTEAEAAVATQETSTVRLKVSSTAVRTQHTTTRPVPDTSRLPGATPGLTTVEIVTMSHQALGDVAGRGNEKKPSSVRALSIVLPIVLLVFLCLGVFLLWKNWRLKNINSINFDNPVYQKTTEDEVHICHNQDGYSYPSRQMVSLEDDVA

Regarding “low density lipoprotein (LDL) (from UniProt P04114 28-4563)”, the Km (p ml ' (as printed, garbled)) was determined as 40.
